The results in this text go back to patent publication US20250289894A1 (MORPHIC THERAPEUTIC, published 2025).

Positions count from the first letter of the chain named.

Broadly, the Kd is the equilibrium constant for the complex coming apart.

B1: Ab30 (antibody, human IgG1, V domains shown)
VH: EVQLVQSGAEVKKPGSSVKVSCKASGYSFTRYWMHWVRQAPGQGLEWIGKIDPSDSETRLNQEFRDRATLTVDKSTSTAYMELSSLRSEDTAVYYCARGGYFGEGWYHDVWGQGTLVTVSS
VL: DIVMTQSPLSLPVTPGEPASISCRSSQSLVHRNGNTYLHWYLQKPGQSPQLLIYEVSKRASGVPDRFSGSGSGTDFTLKISRVEAEDVGVYFCAQSIQVPWTFGGGTKLEIK
B2: Ab35 (antibody, human IgG1, V domains shown)
VH: B1 VH with G105N
VL: B1 VL with K58N, A60Y
B3: Ab41 (antibody, human IgG1, V domains shown)
VH: B1 VH with G105Q
VL: B1 VL with A60F
B4: AB-P (antibody, V domains shown)
VH: B1 VH with E1Q, H108F
VL: B1 VL with I2V, E55K, K58N, A60F, A94S, I97T, Q98H
B5: Ab24 (antibody, human IgG1, kappa, L234A L235A)
heavy: EVQLVQSGAEVKKPGSSVKVSCKASGYSFTRYWMHWVRQAPGQGLEWIGKIDPSDSETRLNQEFRDRATLTVDKSTSTAYMELSSLRSEDTAVYYCARGGYFGREWYYDVWGQGTLVTVSSASTKGPSVFPLAPSSKSTSGGTAALGCLVKDYFPEPVTVSWNSGALTSGVHTFPAVLQSSGLYSLSSVVTVPSSSLGTQTYICNVNHKPSNTKVDKKVEPKSCDKTHTCPPCPAPEAAGGPSVFLFPPKPKDTLMISRTPEVTCVVVDVSHEDPEVKFNWYVDGVEVHNAKTKPREEQYNSTYRVVSVLTVLHQDWLNGKEYKCKVSNKALAAPIEKTISKAKGQPREPQVYTLPPSRDELTKNQVSLTCLVKGFYPSDIAVEWESNGQPENNYKTTPPVLDSDGSFFLYSKLTVDKSRWQQGNVFSCSVLHEALHSHYTQKSLSLSPG
light: DIVMTQSPLSLPVTPGEPASISCRSSQSLVHRNGNTYLHWYLQKPGQSPQLLIYEVSNRAAGVPDRFSGSGSGTDFTLKISRVEAEDVGVYFCSQSTHVPWTFGGGTKLEIKRTVAAPSVFIFPPSDEQLKSGTASVVCLLNNFYPREAKVQWKVDNALQSGNSQESVTEQDSKDSTYSLSSTLTLSKADYEKHKVYACEVTHQGLSSPVTKSFNRGEC
B6: Ab25 (antibody, human IgG1, kappa, L234A L235A)
heavy: B5 heavy with M256Y, S258T, T260E, L432M, S438N
light: B5 light
notes: same variable domains as Ab24
B7: Ab26 (antibody, human IgG1, kappa, L234A L235A, V domains shown)
VH: B1 VH with G105E
VL: DIVMTQSPLSLPVTPGEPASISCRSSQSLVHRNGNTYLHWYLQKPGQSPQLLIYEVSNRFTGVPDRFSGSGSGTDFTLKISRVEAEDVGVYFCAQSTQLPYTFGGGTKLEIKR
B8: Ab28 (antibody, human IgG1, lambda, L234A L235A)
heavy: EVQLVESGGGLVKPGGSLRLSCAASGFTFSSYTMNWVRQAPGKGLEWVSSISIVGNYIYYADSLKGRFTISRDNAKNSLYLQMNSLRAEDTAVYYCARRKWEHDAFDIWGQGTMVTVSSASTKGPSVFPLAPSSKSTSGGTAALGCLVKDYFPEPVTVSWNSGALTSGVHTFPAVLQSSGLYSLSSVVTVPSSSLGTQTYICNVNHKPSNTKVDKKVEPKSCDKTHTCPPCPAPEAAGGPSVFLFPPKPKDTLMISRTPEVTCVVVDVSHEDPEVKFNWYVDGVEVHNAKTKPREEQYNSTYRVVSVLTVLHQDWLNGKEYKCKVSNKALAAPIEKTISKAKGQPREPQVYTLPPSRDELTKNQVSLTCLVKGFYPSDIAVEWESNGQPENNYKTTPPVLDSDGSFFLYSKLTVDKSRWQQGNVFSCSVLHEALHSHYTQKSLSLSPG
light: SSELTQDPAVSVALGQTVRITCQGDSLRSYYASWYQQKPGQAPVLVIYGKNNRPSGIPDRFSGSSSGNTASLTITGAQAEDEADFYCTSRDNSGNHVVFGGGTKLTVLGQPKAAPSVTLFPPSSEELQANKATLVCLISDFYPGAVTVAWKADSSPVKAGVETTTPSKQSNNKYAASSYLSLTPEQWKSHKSYSCQVTHEGSTVEKTVAPTECS
B9: Ab29 (antibody, human IgG1, lambda, L234A L235A)
heavy: B8 heavy with M254Y, S256T, T258E, L430M, S436N
light: B8 light

In one experiment the target is T1, Human a7b1 Ecto (X2B) (human, UniProt P05556 21-728).
T1 construct: extracellular domain
As to the kind of experiment: SPR. In general terms: Surface plasmon resonance follows binding to a sensor surface in real time, without labels.
Molecule B1 came in with a Kd of 3.99 nM. That is a single-digit nanomolar value.
On the same count and under the same terms, to B2 belongs 4.47 nM; to B3, 3.88 nM.
In the case of B4, binding was characterised by a dissociation constant (Kd) of 63.7 nM.
Still for that read-out and setting: to B5 belongs 2.4 nM.
On the same count and under the same terms, the figure for B6 is 3.4 nM; for B7 it is 2.2 nM.

The next experiment concerns the target T2, Human a7 Genu Calf 1-2 (human, UniProt Q13683 679-1078, limits assumed).
T2 construct: domain: Genu Calf 1-2
T2 sequence (looked up): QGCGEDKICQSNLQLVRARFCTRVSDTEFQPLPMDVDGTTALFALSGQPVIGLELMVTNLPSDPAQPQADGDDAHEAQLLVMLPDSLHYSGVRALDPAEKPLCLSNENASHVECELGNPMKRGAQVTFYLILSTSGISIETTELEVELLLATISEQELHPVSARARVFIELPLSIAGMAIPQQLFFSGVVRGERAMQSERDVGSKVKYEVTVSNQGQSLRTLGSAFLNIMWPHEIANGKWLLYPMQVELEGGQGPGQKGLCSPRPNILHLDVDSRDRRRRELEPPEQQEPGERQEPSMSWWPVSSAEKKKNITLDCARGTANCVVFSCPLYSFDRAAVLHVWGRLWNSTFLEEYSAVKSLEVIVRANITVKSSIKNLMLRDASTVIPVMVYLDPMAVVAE
As to the kind of experiment: SPR.
B1 gave a Kd of 0.57 nM.
On the same count and under the same terms, to B2 belongs 0.54 nM; to B3, 0.71 nM; to B4, 16.4 nM.
The same measure, in the same setting: the figure for B5 is 0.1 nM; for B6 it is 0.3 nM; for B7 it is 0.3 nM.

The next experiment deals with T1, Human a7b1 Ecto (X2B). Kind of experiment: SPR. This is another data set of the same source.
Target sequence in this assay (P05556 21-728): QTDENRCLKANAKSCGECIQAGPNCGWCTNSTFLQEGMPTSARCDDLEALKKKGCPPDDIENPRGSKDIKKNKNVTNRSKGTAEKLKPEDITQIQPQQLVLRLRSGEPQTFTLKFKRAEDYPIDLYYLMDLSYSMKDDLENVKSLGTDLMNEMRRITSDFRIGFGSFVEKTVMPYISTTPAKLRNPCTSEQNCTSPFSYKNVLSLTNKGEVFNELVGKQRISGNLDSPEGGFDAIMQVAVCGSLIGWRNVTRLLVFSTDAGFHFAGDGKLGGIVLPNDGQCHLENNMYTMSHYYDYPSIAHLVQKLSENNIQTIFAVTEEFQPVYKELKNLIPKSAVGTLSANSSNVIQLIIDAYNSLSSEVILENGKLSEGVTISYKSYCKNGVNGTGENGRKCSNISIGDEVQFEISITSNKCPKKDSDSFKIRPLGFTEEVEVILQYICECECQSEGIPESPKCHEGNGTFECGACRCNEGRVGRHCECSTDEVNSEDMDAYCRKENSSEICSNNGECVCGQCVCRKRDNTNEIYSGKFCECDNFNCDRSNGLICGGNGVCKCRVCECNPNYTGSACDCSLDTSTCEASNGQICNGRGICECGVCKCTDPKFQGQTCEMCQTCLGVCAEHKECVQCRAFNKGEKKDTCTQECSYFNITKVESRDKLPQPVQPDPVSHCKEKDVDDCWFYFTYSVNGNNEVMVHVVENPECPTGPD
Molecule B8 displayed a Kd of 7.3 nM.
Still for that read-out and setting: the figure for B9 is 8.9 nM.

The target of another experiment is T2, Human a7 Genu Calf 1-2. Kind of experiment: SPR. This is another data set of the same source.
B8 gave a Kd of 1.3 nM.
The same measure, in the same setting: to B9 belongs 3.6 nM.
